Measurements reported in the supplement of paper PMC7877785.
± gives the uncertainty stated by the source.

Assay: self-splicing fitness, log relative to wild type (ln ratio); higher = more splicing; Tetrahymena group I intron in knt gene, E. coli kanamycin selection, DiMSum; sequences stand for … in CUCUCU…GGAGGGAAAAGUUAUCAGGCAUGCACCUGGUAGCUAGUCUUUAAACCAAUAGAUUGCAUCGGUUUAAAAGGCAAGACCGUCAAAUUGCGGGAAAGGGGUCAACAGCCGUUCAGUACCAAGUCUCAGGGGAAACUUUGAGAUGGCCUUGCAAAGGGUAUGGUAAUAAGCUGACGGACAUGGUCCUAACCACGCAGCCAAGUCCUAAGUCAACAGAUCUUCUGUUGAUAUGGAUGCAGUUCACAGACUAAAUGUCGGUCGGGGAAGAUGUAUUCUUCUCAUAAGAUAUAGUCGGACCUCUCCUUAAUGGGAGCUAGCGGAUGAAGUGAUGCAACACUGGAGCCGCUGGGAACUAAUUUGUAUGCGAAAGUAUAUUGAUUAGUUUUGGAGUACUCGUGGUCG
In short: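 Six replicate transformations of E. coli BL21(DE3) with a pET-22b(+) library were grown overnight at 37°C or 30°C. The library randomised all eight P1ex-region intron nucleotides, the intron lying in the knt kanamycin-resistance gene, and plates were LB agar with or without 25 μg/mL kanamycin plus 100 μg/mL carbenicillin, 50 μM IPTG and 0.2% rhamnose. Pooled colonies were amplicon-sequenced on an Illumina HiSeq 2500, and fitness is the DiMSum error-weighted combination of wild-type-normalised replicate fold changes, kanamycin versus none.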

Sequence | self-splicing fitness (ln) (30 °C) | self-splicing fitness (ln) (37 °C)
ACUCAGCAAUAUUACGAACG | -0.623 ± 0.1 | -0.492 ± 0.14
AUAAAGCAAUAUUACGAGGG | -3.4 ± 0.15 | -1.64 ± 0.12
AAAUAGCAAUAUUACGACGA | -0.696 ± 0.099 | -0.228 ± 0.14
AUUUAGCAAUAUUACGCUUU | -2.7 ± 0.16 | -1.2 ± 0.11
GGAUAGCAAUAUUACGUCUA | -0.367 ± 0.087 | -0.516 ± 0.088
AUGAAGCAAUAUUACGCCCC | 0.963 ± 0.19 | 0.00961 ± 0.23
CGCAAGCAAUAUUACGUAUA | -3.79 ± 0.44 | -3.01 ± 0.2
CUGGAGCAAUAUUACGCUCA | -3.4 ± 0.36 | -0.5 ± 0.3
GCAUAGCAAUAUUACGCAAU | -2.37 ± 0.11 | -1.77 ± 0.12
CCUGAGCAAUAUUACGAAUC | -3.69 ± 0.33 | -2.34 ± 0.43
UGUUAGCAAUAUUACGUAGG | -2.19 ± 0.11 | -0.461 ± 0.12
UGGGAGCAAUAUUACGAAGU |  | -1.21 ± 0.3
UCCCAGCAAUAUUACGACUU | -3.04 ± 0.17 | -1.79 ± 0.14
AUUGAGCAAUAUUACGAGUG | -2.69 ± 0.28 | -2.76 ± 0.38
CGGGAGCAAUAUUACGGCAU |  | -1.8 ± 0.35
GUGCAGCAAUAUUACGGGUC | -2.38 ± 0.13 | -0.803 ± 0.14
CCCCAGCAAUAUUACGUGGC | -4.37 ± 0.14 | -2.74 ± 0.12
AGUUAGCAAUAUUACGGUCC | -0.223 ± 0.14 | -0.259 ± 0.19
CGUAAGCAAUAUUACGAAUG | -0.363 ± 0.081 | -0.692 ± 0.088
GAUAAGCAAUAUUACGCAGU | -2.94 ± 0.2 | -1.65 ± 0.24
GCCUAGCAAUAUUACGCCCC | -0.575 ± 0.27 | 0.517 ± 0.49
GCCUAGCAAUAUUACGUAGA | -1.73 ± 0.16 | 0.22 ± 0.13
GCUUAGCAAUAUUACGUAUC | -1.32 ± 0.083 | 0.415 ± 0.093
AGGGAGCAAUAUUACGAACC | -1.52 ± 0.23 | -1.48 ± 0.29
GAACAGCAAUAUUACGGGAG | -2.06 ± 0.086 | -1.47 ± 0.097
AACGAGCAAUAUUACGCCCU | -1.66 ± 0.12 | -0.745 ± 0.17

Sequence | self-splicing fitness (ln) (30 °C) | self-splicing fitness (ln) (37 °C)
GUUGAGCAAUAUUACGAACG |  | -1.12 ± 0.35
GAUGAGCAAUAUUACGAAGG | -1.14 ± 0.26 | 
GUCAAGCAAUAUUACGUCAG | -3.55 ± 0.23 | -3.26 ± 0.37
UGUCAGCAAUAUUACGGAUU | -1.57 ± 0.083 | -0.507 ± 0.12
ACUAAGCAAUAUUACGAAGU | -3.81 ± 0.38 | -2.1 ± 0.35
AGUAAGCAAUAUUACGGCUA | 0.0253 ± 0.081 | 0.0684 ± 0.094
CUUCAGCAAUAUUACGGUGU | -4.48 ± 0.21 | -3.73 ± 0.25
CGCUAGCAAUAUUACGCAUU | -3.69 ± 0.28 | -2.04 ± 0.27
AUCAAGCAAUAUUACGGAUG | -2.01 ± 0.079 | -0.664 ± 0.082
AUGUAGCAAUAUUACGACAG | 0.106 ± 0.081 | 0.358 ± 0.095
CUGUAGCAAUAUUACGGUUU | -4.11 ± 0.26 | -2.69 ± 0.32
UGACAGCAAUAUUACGAGCG | -0.264 ± 0.067 | -0.0667 ± 0.079
UGAUAGCAAUAUUACGAAUU | -4.02 ± 0.46 | -2.64 ± 0.23
GGGUAGCAAUAUUACGCGUU | -0.304 ± 0.091 | -0.0887 ± 0.12
ACGAAGCAAUAUUACGUAAA | -2.9 ± 0.18 | -1.45 ± 0.19
CCUUAGCAAUAUUACGGAUU | -3.31 ± 0.22 | -2.38 ± 0.36
UGUAAGCAAUAUUACGUCUA | -0.00173 ± 0.09 | 0.151 ± 0.11
CUCCAGCAAUAUUACGUAUG | -2.03 ± 0.077 | -1.8 ± 0.087
UAGCAGCAAUAUUACGCAAA | -1.89 ± 0.18 | -1.76 ± 0.17
ACAUAGCAAUAUUACGUGUA | -2.68 ± 0.21 | -2.11 ± 0.22
AAGGAGCAAUAUUACGCAAG | -1.2 ± 0.38 | -1.45 ± 0.49
GCUGAGCAAUAUUACGAAAG | -1.75 ± 0.2 | -1.46 ± 0.23
AGAAAGCAAUAUUACGGCCC | 0.946 ± 0.29 | -0.169 ± 0.27
AAAGAGCAAUAUUACGGGUG | -3.95 ± 0.21 | -1.88 ± 0.19
CACAAGCAAUAUUACGCUAG | -2.72 ± 0.13 | -1.43 ± 0.1
UGGCAGCAAUAUUACGGUAU | -3.72 ± 0.24 | -1.73 ± 0.17

Sequence | self-splicing fitness (ln) (30 °C) | self-splicing fitness (ln) (37 °C)
GCUAAGCAAUAUUACGACGG | -1.8 ± 0.11 | -1.49 ± 0.14
CUGAAGCAAUAUUACGCCUG | -0.0552 ± 0.12 | 0.982 ± 0.16
UUCUAGCAAUAUUACGAGCA | -0.992 ± 0.089 | -0.124 ± 0.085
AGUAAGCAAUAUUACGUCAG |  | -2.58 ± 0.3
CACCAGCAAUAUUACGGAAU | -2.97 ± 0.14 | -2.18 ± 0.16
UACUAGCAAUAUUACGGCUA | -1.58 ± 0.12 | -0.671 ± 0.099
AACGAGCAAUAUUACGUUCC | -3.09 ± 0.36 | -2.41 ± 0.3
CUCAAGCAAUAUUACGCGGU | -3.45 ± 0.19 | -1.07 ± 0.12
UUUCAGCAAUAUUACGCCAG | -1.4 ± 0.31 | -0.498 ± 0.24
UGGCAGCAAUAUUACGUAUG | -0.256 ± 0.068 | -0.15 ± 0.092
AAAGAGCAAUAUUACGUAUG | -3.72 ± 0.25 | -2.06 ± 0.17
AAUCAGCAAUAUUACGUAUC | -0.504 ± 0.044 | 0.251 ± 0.068
GUGCAGCAAUAUUACGGGCA | -2.08 ± 0.15 | -1.23 ± 0.15
GGGCAGCAAUAUUACGCAUU | -0.0216 ± 0.078 | -0.129 ± 0.11
UAGGAGCAAUAUUACGUCAC | -3.99 ± 0.16 | -3.35 ± 0.21
CAAUAGCAAUAUUACGCGCC |  | -1.04 ± 0.44
GAAAAGCAAUAUUACGUAUC | -3.9 ± 0.15 | -1.48 ± 0.1
AGACAGCAAUAUUACGAGGG | -4.15 ± 0.16 | -2.61 ± 0.21
UGUGAGCAAUAUUACGCAAA | -3.07 ± 0.37 | -1.8 ± 0.25
UUUAAGCAAUAUUACGAGGG | -2.32 ± 0.19 | -1.57 ± 0.23
GCUUAGCAAUAUUACGGAUU | -1.15 ± 0.1 | -0.911 ± 0.11
CCACAGCAAUAUUACGCUCA | -2.89 ± 0.21 | -2.41 ± 0.27
CAAGAGCAAUAUUACGGCAA | -3.01 ± 0.29 | -3.03 ± 0.38
UGCGAGCAAUAUUACGGUAU | -5.17 ± 0.38 | -2.32 ± 0.19
AGGUAGCAAUAUUACGGGUU | -2.347 ± 0.017 | -1.72 ± 0.035
